Test results from patent EP4696714A1, “PREPARATION METHOD FOR NANOBODY TARGETING TISSUE FACTOR AND CONJUGATE AND USE THEREOF” (Fudan University, priority 2023, dated 2024).
Where a chain is given by its changes, count along the chain named.

B1: 5-C12-FC1-MMAE (5-C12-FC1 coupled to mc-vc-MMAE) (Fc fusion)
chain: QVQLVESGGGLAQAGGSLRLSCAGSGRTFSTDAMGWFRQAPGKEREFVAAINWSGGSTYYADSVKGRFTISRDNAKNTVYLQMNSVKPEDTAVYYCVADSLLALLDGSRGGPGTDSDSWGQGTQVTVSSEPKSSDKTHTCPPCPAPEFEGGPSVFLFPPKPKDTLMISRTPEVTCVVVDVSHEDPEVKFNWYVDGVEVHNAKTKPREEQYNSTYRVVSVLTVLHQDWLNGKEYKCKVSNKALPASIEKTISKAKGQPREPQVYTLPPSRDELTKNQVSLTCLVKGFYPSDIAVEWESNGQPENNYKTTPPVLDSDGSFFLYSKLTVDKSRWQQGNVFSCSVMHEALHNHYTQKSLSLSPGK
modifications: mc-vc-MMAE coupled to cysteine thiols after TCEP reduction; DAR4 about 66.2% and DAR2 about 21.9% by HIC; positions not given
B2: 4-C08-FC1-MMAE (4-C08-FC1 coupled to mc-vc-MMAE) (Fc fusion)
chain: DVQLVESGGGLVQPGGSLRLSCAVSGFSLSSYDMNWYRQGPGKEREWVANIHSSGGYPDYADAVKGRFTISRDNAKNMVYLQMNSLKPEDTAVYYCNLPPSRRWYKDYWGQGTQVTVSSEPKSSDKTHTCPPCPAPEFEGGPSVFLFPPKPKDTLMISRTPEVTCVVVDVSHEDPEVKFNWYVDGVEVHNAKTKPREEQYNSTYRVVSVLTVLHQDWLNGKEYKCKVSNKALPASIEKTISKAKGQPREPQVYTLPPSRDELTKNQVSLTCLVKGFYPSDIAVEWESNGQPENNYKTTPPVLDSDGSFFLYSKLTVDKSRWQQGNVFSCSVMHEALHNHYTQKSLSLSPGK
modifications: mc-vc-MMAE coupled to cysteine thiols after TCEP reduction; DAR4 about 41.8% and DAR2 about 42.7% by HIC; positions not given
B3: 4-A02-FC1-MMAE (4-A02-FC1 coupled to mc-vc-MMAE) (Fc fusion)
chain: QVQLVESGGGLVQPGGSLSLSCTASETISSTYIMGWHRRSPGKERELVAVISGDGVTHYADFVKGRFVISRDNAKNAVYLKMNFLTPEDTAVYYCYAAGRWNHWGQGTQVTVSSEPKSSDKTHTCPPCPAPEFEGGPSVFLFPPKPKDTLMISRTPEVTCVVVDVSHEDPEVKFNWYVDGVEVHNAKTKPREEQYNSTYRVVSVLTVLHQDWLNGKEYKCKVSNKALPASIEKTISKAKGQPREPQVYTLPPSRDELTKNQVSLTCLVKGFYPSDIAVEWESNGQPENNYKTTPPVLDSDGSFFLYSKLTVDKSRWQQGNVFSCSVMHEALHNHYTQKSLSLSPGK
modifications: mc-vc-MMAE coupled to cysteine thiols after TCEP reduction; target DAR 4 for the dimer (about 95% DAR4 by HIC); positions not given
B4: 4-E04-FC1-MMAE (4-E04-FC1 coupled to mc-vc-MMAE) (Fc fusion)
chain: B3 chain with Q1A, T23A, T27M, H37Y, A60G, V68A, A74V, Y96N, W101R
modifications: mc-vc-MMAE coupled to cysteine thiols after TCEP reduction; the coupling did not complete and the proportion of coupling products was very low; positions not given
B5: 4-C05-FC1-MMAE (4-C05-FC1 coupled to mc-vc-MMAE) (Fc fusion)
chain: QVQLVESGGGLVQPGGSLRLSCAASGFTLDTYAIGWIRQAPGKEREGVSCISSTDGSTYYAASVKGRFTINRDNAKNTVYLQMNSLKPEDTAVYYCAAGPGTDCPLRFDYWGQGIQVTVSSEPKSSDKTHTCPPCPAPEFEGGPSVFLFPPKPKDTLMISRTPEVTCVVVDVSHEDPEVKFNWYVDGVEVHNAKTKPREEQYNSTYRVVSVLTVLHQDWLNGKEYKCKVSNKALPASIEKTISKAKGQPREPQVYTLPPSRDELTKNQVSLTCLVKGFYPSDIAVEWESNGQPENNYKTTPPVLDSDGSFFLYSKLTVDKSRWQQGNVFSCSVMHEALHNHYTQKSLSLSPGK
modifications: mc-vc-MMAE coupled to cysteine thiols after TCEP reduction; target DAR 4; positions not given
B6: F1-A01-FC1-MMAE (F1-A01-FC1 coupled to mc-vc-MMAE) (Fc fusion)
chain: EVQLVESGGGLVQAGGSLRLSCAASGRAFSAYAMGWFRQAPGKEREFVAAISWSGGSTYYADSVRGRFTISRDNTKNTVYLQMNSLKPEDTAVYYCNADSLLSLLDGSRGGPGTDSGSWGQGTQVTVSSEPKSSDKTHTCPPCPAPEFEGGPSVFLFPPKPKDTLMISRTPEVTCVVVDVSHEDPEVKFNWYVDGVEVHNAKTKPREEQYNSTYRVVSVLTVLHQDWLNGKEYKCKVSNKALPASIEKTISKAKGQPREPQVYTLPPSRDELTKNQVSLTCLVKGFYPSDIAVEWESNGQPENNYKTTPPVLDSDGSFFLYSKLTVDKSRWQQGNVFSCSVMHEALHNHYTQKSLSLSPGK
modifications: mc-vc-MMAE coupled to cysteine thiols after TCEP reduction; target DAR 4 (about 91% DAR4 by HIC); positions not given
B7: 4-A02-FC1-DXd (4-A02-FC1 coupled to GGFG-DXd) (Fc fusion)
chain: B3 chain
modifications: GGFG-DXd coupled to cysteine thiols after TCEP reduction; DAR 4; positions not given
B8: 4-A02-ABD-MMAE (4-A02-ABD coupled to mc-vc-MMAE) (other)
chain: QVQLVESGGGLVQPGGSLSLSCTASETISSTYIMGWHRRSPGKERELVAVISGDGVTHYADFVKGRFVISRDNAKNAVYLKMNFLTPEDTAVYYCYAAGRWNHWGQGTQVTVSSGGGGSGGGGSGGGGSQHDEAVDANSLAEAKVLANRELDKYGVSDYYKNLINNAKTVEGVKALIDEILAALPAAACAAAHHHHHH
modifications: mc-vc-MMAE coupled to a cysteine thiol after TCEP reduction; DAR 1; position not stated
B9: 5-C12-FC1 (chimeric nanobody: 5-C12 VHH fused with human Fc mutant fragment FC1) (Fc fusion)
chain: B1 chain
notes: built from the VHH and FC1
B10: 4-C08-FC1 (chimeric nanobody: 4-C08 VHH fused with human Fc mutant fragment FC1) (Fc fusion)
chain: B2 chain
notes: built from the VHH and FC1
B11: 4-A02-FC1 (chimeric nanobody: 4-A02 VHH fused with human Fc mutant fragment FC1) (Fc fusion)
chain: B3 chain
notes: VHH-Fc fusion expressed in HEK293; also called chimeric antibody 4-A02
B12: 4-E04-FC1 (chimeric nanobody: 4-E04 VHH fused with human Fc mutant fragment FC1) (Fc fusion)
chain: B3 chain with Q1A, T23A, T27M, H37Y, A60G, V68A, A74V, Y96N, W101R
notes: built from the VHH and FC1
B13: 4-C05-FC1 (chimeric nanobody: 4-C05 VHH fused with human Fc mutant fragment FC1) (Fc fusion)
chain: B5 chain
notes: built from the VHH and FC1

Target: T1, TF on the surface of tumor cells (MDA-MB-231, HPAF-II, HCC1806, BxPC3, HCC44, PC9, H1975 and other … (UniProt P13726 33-295, limits assumed))
Experiment: cell-based or functional assay

Binder | Cell proliferation inhibition IC50, BxPC3 cells (MTS) [ng/mL] | Cell proliferation inhibition IC50, HCC1806 cells (MTS) [ng/mL] | Cell proliferation inhibition IC50, HPAF-II cells (MTS) [ng/mL]
B1 | 5 | 26 | 12
B2 | 0.7 | 0.5 | 1
B3 | 0.1 | 0.1 | 0.7
B4 | 28.8 | 32.6 | 24.3
B5 | 8.6 | 14 | 7.7
B6 | 1.2 | 4 | 0.7

Target: T1, TF on the surface of tumor cells …
Experiment: cell-based or functional assay
Remark: another data set of the same source

Binder | Cell proliferation inhibition IC50, BxPC3 cells (MTS) [ng/mL] | Cell proliferation inhibition IC50, H1975 cells (MTS) [ng/mL] | Cell proliferation inhibition IC50, HCC44 cells (MTS) [ng/mL] | Cell proliferation inhibition IC50, HPAF-II cells (MTS) [ng/mL] | Cell proliferation inhibition IC50, PC9 cells (MTS) [ng/mL]
B3 | 0.8 | 2.2 | 2.2 | 0.2 | 0.4
B7 | 2.5 | > 15000 | 19.1 | 2.4 | 5630
B8 | 0.3 | 163 | 79.4 | 1.3 | 5

Target: T1, TF on the surface of tumor cells …
Experiment: flow cytometry on MDA-MB-231 cells, PE-labeled secondary antibody

Binder | EC50 [ng/mL]
B9 | 470
B10 | 50
B11 | 80
B12 | 130
B13 | 700

Target: T2, human TF extracellular domain protein (TF-ECD, Met 1-Glu 251) (human, UniProt P13726 33-251)
T2 construct: range 1-251; also called human TF-ECD; not shown: His tag (protein captured on an NTA sensor as 'FDYKSD-01-His')
Experiment: ForteBio OCTET R2; His-tagged antigen on NTA sensor, nanobody-Fc 25-1.56 nM in solution, 25°C

Binder | Kd [nM]
B9 | 0.001
B11 | 2.09
B12 | 7.04
B13 | 0.2
